Source: PMC2756588

What was measured:
Assay in all cases: SPOT array
Abp1, P15891 = target: T1, Abp1, P15891; conditions: median of control spots 935
T1 sequence (P15891 535-592, looked up): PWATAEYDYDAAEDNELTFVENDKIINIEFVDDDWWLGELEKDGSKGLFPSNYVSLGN

Bbc1, P47068 = target: T2, Bbc1, P47068; conditions: median of control spots 796
T2 sequence (P47068 1-78, looked up): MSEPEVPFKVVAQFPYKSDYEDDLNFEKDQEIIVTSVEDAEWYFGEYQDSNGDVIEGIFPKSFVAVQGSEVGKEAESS

Bem1-1, P29366 = conditions: median of control spots 4282
Bem1-2, P29366 = conditions: median of control spots 4347
Boi1, P38041 = target: T3, Boi1, P38041; conditions: median of control spots 1162
T3 sequence (P38041 1-86, looked up): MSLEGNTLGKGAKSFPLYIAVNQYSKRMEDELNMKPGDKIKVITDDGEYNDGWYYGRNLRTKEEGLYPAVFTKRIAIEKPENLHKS

Boi2, P39969 = target: T4, Boi2, P39969; conditions: median of control spots 1161
T4 sequence (P39969 32-116, looked up): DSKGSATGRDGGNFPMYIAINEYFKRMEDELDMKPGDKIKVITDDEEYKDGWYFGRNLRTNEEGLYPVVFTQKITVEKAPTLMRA

Bud14, P27637 = target: T5, Bud14, P27637; conditions: median of control spots 956
T5 sequence (P27637 247-328, looked up): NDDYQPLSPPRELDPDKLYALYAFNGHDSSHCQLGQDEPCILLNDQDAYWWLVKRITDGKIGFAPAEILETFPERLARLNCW

Bzz1-1, P38822 = target: T6, Bzz1-1, P38822; conditions: median of control spots 4446
T6 sequence (P38822 478-572, looked up): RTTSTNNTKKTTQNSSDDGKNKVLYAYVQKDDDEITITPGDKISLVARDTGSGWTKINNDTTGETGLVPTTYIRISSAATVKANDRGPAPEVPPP

Bzz1-2, P38822 = target: T7, Bzz1-2, P38822; conditions: median of control spots 4538
T7 sequence (P38822 568-633, looked up): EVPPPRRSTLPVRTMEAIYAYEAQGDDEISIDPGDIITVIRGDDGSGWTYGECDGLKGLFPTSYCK

Cdc25, P04821 = target: T8, Cdc25, P04821; conditions: median of control spots 969
T8 sequence (P04821 50-136, looked up): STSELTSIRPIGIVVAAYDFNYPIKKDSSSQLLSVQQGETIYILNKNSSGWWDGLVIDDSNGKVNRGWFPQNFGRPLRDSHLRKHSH

Cyk3, Q07533 = target: T9, Cyk3, Q07533; conditions: median of control spots 1451
T9 sequence (Q07533 1-83, looked up): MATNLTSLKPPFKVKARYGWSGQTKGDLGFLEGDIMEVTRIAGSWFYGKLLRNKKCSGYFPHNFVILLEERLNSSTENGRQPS

Fus1, P11710 = target: T10, Fus1, P11710; conditions: median of control spots 1200
T10 sequence (P11710 432-512, looked up): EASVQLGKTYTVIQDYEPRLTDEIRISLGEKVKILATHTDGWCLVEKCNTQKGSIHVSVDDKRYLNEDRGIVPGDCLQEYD

GST = conditions: median of control spots 978
Hof1, Q05080 = target: T11, Hof1, Q05080; conditions: median of control spots 4086
T11 sequence (Q05080 590-669, looked up): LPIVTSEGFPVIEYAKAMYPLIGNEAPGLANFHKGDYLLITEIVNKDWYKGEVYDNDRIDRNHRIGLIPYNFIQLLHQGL

Hse1, P38753 = target: T12, Hse1, P38753; conditions: median of control spots 1727
T12 sequence (P38753 208-285, looked up): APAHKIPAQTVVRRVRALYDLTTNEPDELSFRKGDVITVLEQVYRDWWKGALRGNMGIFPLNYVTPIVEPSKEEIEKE

Lsb1, P53281 = target: T13, Lsb1, P53281; conditions: median of control spots 388
T13 sequence (P53281 45-122, looked up): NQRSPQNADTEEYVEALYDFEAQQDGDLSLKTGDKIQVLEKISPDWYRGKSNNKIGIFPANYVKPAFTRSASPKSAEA

Lsb3, P43603 = target: T14, Lsb3, P43603; conditions: median of control spots 406
T14 sequence (P43603 385-451, looked up): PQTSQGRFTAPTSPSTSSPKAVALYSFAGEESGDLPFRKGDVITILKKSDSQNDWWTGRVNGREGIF

Lsb4, P32793 = target: T15, Lsb4, P32793; conditions: median of control spots 397
T15 sequence (P32793 402-468, looked up): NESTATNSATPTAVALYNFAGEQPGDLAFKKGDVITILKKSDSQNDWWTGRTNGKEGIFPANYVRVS

Myo3, P36006 = conditions: median of control spots 468
Myo5, Q04439 = target: T16, Myo5, Q04439; conditions: median of control spots 471
T16 sequence (Q04439 1072-1160, looked up): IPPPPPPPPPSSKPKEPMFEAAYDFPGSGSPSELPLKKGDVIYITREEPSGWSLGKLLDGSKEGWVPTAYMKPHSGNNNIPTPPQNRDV

Nbp2, Q12163 = target: T17, Nbp2, Q12163; conditions: median of control spots 357
T17 sequence (Q12163 103-180, looked up): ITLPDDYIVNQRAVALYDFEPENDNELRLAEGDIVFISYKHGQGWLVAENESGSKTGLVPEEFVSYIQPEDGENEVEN

Pex13, P80667 = target: T18, Pex13, P80667; conditions: median of control spots 1341
T18 sequence (P80667 295-386, looked up): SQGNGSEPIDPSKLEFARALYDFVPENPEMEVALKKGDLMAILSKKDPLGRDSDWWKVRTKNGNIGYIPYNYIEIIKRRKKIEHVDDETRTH

Pin3, Q06449 = target: T19, Pin3, Q06449; conditions: median of control spots 2171
T19 sequence (Q06449 53-122, looked up): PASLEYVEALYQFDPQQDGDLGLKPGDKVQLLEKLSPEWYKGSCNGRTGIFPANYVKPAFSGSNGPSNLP

Rvs167, P39743 = conditions: median of control spots 2707
Sho1, P40073 = conditions: median of control spots 1148
Sla1-2, P32790 = target: T20, Sla1-2, P32790; conditions: median of control spots 712
T20 sequence (P32790 60-140, looked up): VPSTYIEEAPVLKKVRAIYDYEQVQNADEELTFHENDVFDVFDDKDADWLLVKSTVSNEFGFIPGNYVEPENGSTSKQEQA

Sla1-3, P32790 = target: T21, Sla1-3, P32790; conditions: median of control spots 5475
T21 sequence (P32790 344-424, looked up): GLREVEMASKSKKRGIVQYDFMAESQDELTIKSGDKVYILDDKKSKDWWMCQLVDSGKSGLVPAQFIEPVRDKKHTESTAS

Bem1-1, P29366, sequence (P29366 55-141): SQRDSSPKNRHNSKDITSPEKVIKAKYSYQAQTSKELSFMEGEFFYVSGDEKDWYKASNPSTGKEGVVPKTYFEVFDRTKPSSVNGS
Rvs167, P39743, sequence (P39743 419-482): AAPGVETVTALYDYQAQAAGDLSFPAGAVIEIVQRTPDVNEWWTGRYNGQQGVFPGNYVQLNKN
Bem1-2, P29366, sequence (P29366 139-227): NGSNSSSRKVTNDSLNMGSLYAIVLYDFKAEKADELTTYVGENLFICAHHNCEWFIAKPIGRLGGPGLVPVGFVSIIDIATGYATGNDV
Sho1, P40073, sequence (P40073 287-367): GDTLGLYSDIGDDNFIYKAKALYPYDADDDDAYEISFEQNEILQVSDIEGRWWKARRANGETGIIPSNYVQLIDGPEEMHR

SPOT intensity (Abp1, P15891) | SPOT intensity (Bbc1, P47068) | SPOT intensity (Bem1-1, P29366) | SPOT intensity (Bem1-2, P29366) | SPOT intensity (Boi1, P38041) | SPOT intensity (Boi2, P39969) | SPOT intensity (Bud14, P27637) | SPOT intensity (Bzz1-1, P38822) | SPOT intensity (Bzz1-2, P38822) | SPOT intensity (Cdc25, P04821) | SPOT intensity (Cyk3, Q07533) | SPOT intensity (Fus1, P11710) | SPOT intensity (GST) | SPOT intensity (Hof1, Q05080) | SPOT intensity (Hse1, P38753) | SPOT intensity (Lsb1, P53281) | SPOT intensity (Lsb3, P43603) | SPOT intensity (Lsb4, P32793) | SPOT intensity (Myo3, P36006) | SPOT intensity (Myo5, Q04439) | also measured | Binder
139 | 248 | 1 | 29 | 2 | 1 | 16 | 0 | 60 | 35 | 0 | 0 | 0 | 18 | 9 | 576 | 183 | 333 | 3 | 0 | SPOT intensity (Nbp2, Q12163): 46; SPOT intensity (Pex13, P80667): 129; SPOT intensity (Pin3, Q06449): 12; SPOT intensity (Rvs167, P39743): 3400; SPOT intensity (Sho1, P40073): 31; SPOT intensity (Sla1-2, P32790): 0; SPOT intensity (Sla1-3, P32790): 459 | SNRRPVPRRPSQPLN
36 | 36 | 1 | 4 | 0 | 0 | 4 | 0 | 7 | 142 | 0 | 34 | 0 | 9 | 32 | 53 | 0 | 0 | 0 | 0 | SPOT intensity (Nbp2, Q12163): 14; SPOT intensity (Pex13, P80667): 13; SPOT intensity (Pin3, Q06449): 15; SPOT intensity (Rvs167, P39743): 0; SPOT intensity (Sho1, P40073): 41; SPOT intensity (Sla1-2, P32790): 0; SPOT intensity (Sla1-3, P32790): 97 | RFKRHRLEFPFNESE
0 | 0 | 0 | 0 | 1 | 1 | 1 | 1 | 0 | 66 | 0 | 0 | 0 | 0 | 0 | 0 | 0 | 0 | 0 | 0 | SPOT intensity (Nbp2, Q12163): 0; SPOT intensity (Pex13, P80667): 14; SPOT intensity (Pin3, Q06449): 4; SPOT intensity (Rvs167, P39743): 0; SPOT intensity (Sho1, P40073): 10; SPOT intensity (Sla1-2, P32790): 0; SPOT intensity (Sla1-3, P32790): 0 | SKSRLLIELPEGFFT
37 | 67 | 0 | 0 | 14 | 4 | 9 | 0 | 0 | 132 | 0 | 4 | 0 | 0 | 0 | 0 | 6 | 2 | 7 | 1 | SPOT intensity (Nbp2, Q12163): 10; SPOT intensity (Pex13, P80667): 19; SPOT intensity (Pin3, Q06449): 0; SPOT intensity (Rvs167, P39743): 0; SPOT intensity (Sho1, P40073): 51; SPOT intensity (Sla1-2, P32790): 0; SPOT intensity (Sla1-3, P32790): 0 | GKKVRPLLVLLLSRA
